Experimental data from the DeepSol protein solubility set.

test: soluble on expression in E. coli; label from the status in PepcDB or PDB records

Sequence	soluble on expression in E. coli
MGSDKIHHHHHHMINRKFINTVLAKRSTRSGLCQSATRTSRWLAVAIAILLANNSHADTSQTNVAAPAKTSACYLDGLDEQLQCGKITVLENPQLPDGKQIDIHFAILPAIKNTHPNEALLAIAGGPGQSAIENAAFFNRMLTKVRQQRDILLIDQRGTGKSNILSCDDDTTELLSMNDDDLDIIAMTEKCLGQIDADVSQYGSNTALTDFEAVREYLGYQKLHLYGISYGTRMAQLYMRHYPEALLTVTLDGVVPMQQSVVAIGDSIERGLNVLWRDCKSTPACQQQFPDLADEYNKVDQLLATAPISQQVRDPQTDELSEFLLTRSKFSGAIRMAMYMANIRALIPHAIHQAAQGNYQPILGIYTLTADSTGIAMGMHASVVCGEDIHRITDQMRKDAKESYISGNMLEGLEKTCQAWPIPQVDDNFSEPILSDIPTLLLSGELDPATPPNWGALAQEKLTKSKHFIAPYATHGVAGQSCGNDLVAQLVDQGSVKDINGECLQKDVRRSFYLNANTVEALPVIDTPTDIETTAPANTAADKE	not soluble
GSSGSSGVSSQETQGGPLAPMTGTIEKVFVKAGDKVKAGDSLMVMIAMKMEHTIKSPKDGTVKKVFYREGAQANRHTPLVEFEEEESDKRESESGPSSG	soluble
MSRFLISSFILIAFVLQFGEGSIAVQEVKDGEKVQIELFKGAKAIQRSVDAGEQIFHFEGENKGVFVDANGKAIDSSNYEENNGHLVIKKFTKADVGSYSEYPTKIIKTKTDHGFSGVAAPVLKLSLQ	soluble
GPFPPPGMSLPEYWGEEHVWWDGRAAFHGEVVRPACTLAMEDAWQIIDMGETPVRDLQNGFSGPERKFSLRLRNCEFNSQGGNLFSDSRIRVTFDGVRGETPDKFNLSGQAKGINLQIADVRGNIARAGKVMPAIPLTGNEEALDYTLRIVRNGKKLEAGNYFAVLGFRVDYE	soluble
MGAFFMSVVSAFAGAAEACRPTGALQNVEVARVVDGDTVRLRDGRSVRLIGINAPELAHNGRTTEPFAEAAKQRLQALVSASDGRLALQPGRQARDHYGRTLAHLFDASGANLEARLLGEGLGYLVAVAPNTELTACQQAAERAARSANLGVWKRSPVLSLDRLAQSGFAVVRGRVLEVERNRGGIWLEMDGPLVLRIEPKVLKAFDAKRVMQMAGRSLEVRGWVVDRSRRGAVPAGKARWQMSVTDPAMLEWLPLEHHHHHH	not soluble
MGSDKIHHHHHHMFDAIGWDEIKNFEYMKQSIIAKIEHACASHEIPLHTHPKGQLILALHGYVTCEVSAKMWMVPTHSAIWIPAYKVHSNRASDNAKLCHLFIDSNMDGMPQNTCTLAISPLVKELMCELASRDQHYRSNSKTARLAQVLHDQLIDMPIQHLDFVLSKNMVIQAMSQQLISQPHDRKTLPQWAEQFALTERTLARLIKKETGMTFGKWRTQLHIITSLQALSDKQSVQQVSELLGYESVSAFITMFKKVMKTSPMKYMNELNAY	not soluble
MSPSLLGSSFLRSASGNFTKFASIRNAHFLSSVPMKKRGVDGNLPKDYFENKTVVVYFSAGWCGSCKFLTPKIKKFYNAVKESDAGKNLEIVWVSKDKEAAHQEEYYEKNLPDWPYIPFGDENIQKLSEKYKAVVIPVLKLVNSNGDVVHDRVRADVEAGIKADPVKTMEEWKKLLNQ	not soluble
MGSDKIHHHHHHMTIRQTKEANLLISERADFQVTAKIEQMAKGYIDRWHQHPWHQIAFPFEGILQTKVADSQFVIPHSGMLFIPANTPHESFVVTDTKFIGIYLNPQFQNHFPLTAKAISVTPFLRELVLHINHGVSNSIVSEEELSKLVAVLIDQISSGESYQMKLLLPSDRRLMIIFKALMTDPQLNTKLSDWAKQVGASERTLSRLFTKELGMTFPLWRQHLRLVSSLNLLETNLSVQEIAFKVGYNADSSFIYAFKKLFQQTPQQYRHSGFKLSSRINDK	not soluble
MANRMILNETAWFGRGAVDALTDEVTRRGYHKALIVTDKTLVQCGVVDKVTSRMDAAGLAWEIYAGVIPNPTISVVQEGLKVFTQSGADYLIAIGGGSPQDTCKAIGIISNNPEFADVRSLEGLSPTRKPSVPIMAIPTTAGTAAEVTINYVITDEEKRRKFVCVDPHDIPQAAFIDADMMDGMPPALKAATGVDALTHAIEGYITRAAWALTDALHIKAIEIIAGALRGAVAGEKEAGEAMALGQYVAGMGFSNVGLGLVHGMAHPLGAFYNTPHGVANAILLPHVMRFNAGSTNEKFRDIARAMGVKVEGLSLEEARNAAVEAVFTLNRDVGIPLHLRDVGVRKEDIPALAQAAFDDVCTGGNPREASLADIVELYHTAW	not soluble
